Assay results reported in patent US20080293632.

Biological target: SHOX full length (Homo sapiens) (UniProt O15266)
Assay: cell_activity
Details: luciferase

Sequence of SHOX full length (Homo sapiens) (O15266 whole entry): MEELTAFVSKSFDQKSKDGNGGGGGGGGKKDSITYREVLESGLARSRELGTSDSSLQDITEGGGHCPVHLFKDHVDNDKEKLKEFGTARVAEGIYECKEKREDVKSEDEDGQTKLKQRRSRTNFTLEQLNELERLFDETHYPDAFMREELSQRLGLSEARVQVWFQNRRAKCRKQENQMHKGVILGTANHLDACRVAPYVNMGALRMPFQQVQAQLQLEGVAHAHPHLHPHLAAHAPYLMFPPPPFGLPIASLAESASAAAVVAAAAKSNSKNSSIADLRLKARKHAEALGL

Row | Substance | activity (fold induction) (forward orientation, reverse 8-fold) | activity (fold induction)
1 | BNP 5' flanking region reporter (BNP for / BNP rev) | 10 | –
2 | p3XG reporter (SHOX binding site before SV40 core promoter) | – | 2
